Data taken from the supplement of paper PMC9112550, “Optimization of the antimicrobial peptide Bac7 by deep mutational scanning” (BMC Biology, 2022).

system: Escherichia coli TOP10; test: shrunken log2 fold change of peptide-encoding DNA abundance (4.5 h post-induction vs induction); higher = less antimicrobial activity (less host growth inhibition); details: time post-induction: 4.5 h; library: site-saturation at positions 5, 18, 19, 20
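Note: peptides expressed intracellularly from a pBAD plasmid library in pooled LB shake-flask culture, induced with 0.3% L-arabinose, DNA abundance read by NGS, three biological replicates, DESeq2 with apeglm shrinkage.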

Sequence	shrunken log2 fold change
RRIRSRPPRLPRPRPRPKCTPRP	-0.0418
RRIRDRPPRLPRPRPRPPSYPRP	-0.222
RRIRSRPPRLPRPRPRPTHIPRP	-0.165
RRIRTRPPRLPRPRPRPECVPRP	0.148
RRIRTRPPRLPRPRPRPADMPRP	-0.431
RRIRYRPPRLPRPRPRPFCTPRP	-0.425
RRIRGRPPRLPRPRPRPESVPRP	1.42
RRIRGRPPRLPRPRPRPKVSPRP	0.787
RRIRMRPPRLPRPRPRPGISPRP	0.0451
RRIRRRPPRLPRPRPRPYTNPRP	-0.95
RRIRFRPPRLPRPRPRPSYFPRP	-0.479
RRIRIRPPRLPRPRPRPDFEPRP	-0.39
RRIRHRPPRLPRPRPRPELAPRP	-0.0268
RRIRSRPPRLPRPRPRPTYHPRP	-0.492
RRIRKRPPRLPRPRPRPQMWPRP	0.608
RRIRLRPPRLPRPRPRPRCSPRP	0.0191
RRIRCRPPRLPRPRPRPYQIPRP	-0.852
RRIRIRPPRLPRPRPRPLGWPRP	0.339
RRIRWRPPRLPRPRPRPDLVPRP	0.0575
RRIRDRPPRLPRPRPRPGYDPRP	0.0286
RRIRLRPPRLPRPRPRPGSHPRP	0.0329
RRIRTRPPRLPRPRPRPHMQPRP	-0.249
RRIRWRPPRLPRPRPRPHLNPRP	0.0153
RRIRKRPPRLPRPRPRPDPVPRP	-0.146
RRIRYRPPRLPRPRPRPFIGPRP	-1.58

Sequence	shrunken log2 fold change
RRIRYRPPRLPRPRPRPVYRPRP	-0.158
RRIRDRPPRLPRPRPRPMNVPRP	0.0651
RRIRTRPPRLPRPRPRPKAPPRP	0.317
RRIRQRPPRLPRPRPRPMQPPRP	0.0113
RRIRTRPPRLPRPRPRPRNDPRP	-0.227
RRIRVRPPRLPRPRPRPEWAPRP	0.0253
RRIRERPPRLPRPRPRPNIHPRP	-0.637
RRIRYRPPRLPRPRPRPASTPRP	-0.0914
RRIRERPPRLPRPRPRPGWQPRP	0.0683
RRIRWRPPRLPRPRPRPAWAPRP	0.579
RRIRYRPPRLPRPRPRPNLQPRP	-0.614
RRIRERPPRLPRPRPRPHWIPRP	-0.117
RRIRGRPPRLPRPRPRPHGFPRP	0.422
RRIRKRPPRLPRPRPRPPNEPRP	1.68
RRIRTRPPRLPRPRPRPIYPPRP	-0.243
RRIRDRPPRLPRPRPRPLMVPRP	-0.186
RRIRPRPPRLPRPRPRPGTSPRP	-0.0162
RRIRFRPPRLPRPRPRPWWHPRP	-0.334
RRIRPRPPRLPRPRPRPFLVPRP	-0.0765
RRIRPRPPRLPRPRPRPRHNPRP	-0.0793
RRIRFRPPRLPRPRPRPVEEPRP	-0.177
RRIRVRPPRLPRPRPRPNQDPRP	-0.116
RRIRYRPPRLPRPRPRPYSFPRP	-0.106
RRIRWRPPRLPRPRPRPTWWPRP	0.79
RRIRKRPPRLPRPRPRPWSCPRP	-0.22

Sequence	shrunken log2 fold change
RRIRWRPPRLPRPRPRPFDDPRP	-0.121
RRIRYRPPRLPRPRPRPSAYPRP	-0.854
RRIRSRPPRLPRPRPRPWSWPRP	0.405
RRIRHRPPRLPRPRPRPNDYPRP	-0.56
RRIRTRPPRLPRPRPRPHFNPRP	-0.556
RRIRYRPPRLPRPRPRPDIWPRP	-0.00585
RRIRTRPPRLPRPRPRPSNAPRP	-0.424
RRIRTRPPRLPRPRPRPYVVPRP	-0.738
RRIRARPPRLPRPRPRPFGEPRP	0.15
RRIRTRPPRLPRPRPRPQRNPRP	-0.115
RRIRLRPPRLPRPRPRPRVGPRP	0.295
RRIRERPPRLPRPRPRPSWTPRP	-0.833
RRIRWRPPRLPRPRPRPIKSPRP	0.0589
RRIRQRPPRLPRPRPRPQRPPRP	0.0996
RRIRHRPPRLPRPRPRPSEFPRP	-0.477
RRIRQRPPRLPRPRPRPMWVPRP	0.551
RRIRSRPPRLPRPRPRPRQSPRP	0.113
RRIRIRPPRLPRPRPRPMCDPRP	-0.356
RRIRPRPPRLPRPRPRPGFKPRP	0.13
RRIRERPPRLPRPRPRPQVCPRP	-0.245
RRIRQRPPRLPRPRPRPFHTPRP	-0.0573
RRIRERPPRLPRPRPRPTCDPRP	0.158
RRIRGRPPRLPRPRPRPKGDPRP	0.0175
RRIRRRPPRLPRPRPRPNYFPRP	-0.323
RRIRSRPPRLPRPRPRPVPEPRP	0.563
